Test results as given in PMC6081480, “Monitoring the action of redox-directed cancer therapeutics using a human peroxiredoxin-2-based probe” (Nature Communications, 2018).

Columns and labels:
[1] = target: human Prx2-based FRET probe (Clover-Prx2-mRuby2) (human); experiment: non-reducing SDS-PAGE with immunoblot; HeLa cells with or without the probe, treated with H2O2 (also auranofin or piperlongumine); free thiols blocked with 100 mM MMTS; 1% Triton X-100 lysate; SDS-PAGE without beta-mercaptoethanol; blot for Prx2 or GFP; disulfide-linked dimers
[2] = target: the molecule itself; experiment: as above

human Prx2-based FRET probe (Clover-Prx2-mRuby2)
stoichiometry N [1]: 2

B1: human peroxiredoxin-2 (endogenous) (natural protein, human (endogenous in HeLa), UniProt P32119 1-198, looked up)
chain: MASGNARIGKPAPDFKATAVVDGAFKEVKLSDYKGKYVVLFFYPLDFTFVCPTEIIAFSNRAEDFRKLGCEVLGVSVDSQFTHLAWINTPRKEGGLGPLNIPLLADVTRRLSEDYGVLKTDEGIAYRGLFIIDGKGVLRQITVNDLPVGRSVDEALRLVQAFQYTDEHGEVCPAGWKPGSDTIKPNVDDSKEYFSKHN
notes: peroxiredoxin-2 (Prx2), human, endogenous in HeLa cells; monomer band at 21 kDa; the dimer seen on non-reducing SDS-PAGE is linked by a disulfide between the catalytic and the resolving cysteine of two monomers; also called Prx2; endogenous Prx2; source: endogenous, HeLa lysate
stoichiometry N [2]: 2
